± gives the standard deviation of the averaged measurements.
Experiment: total protein half-life in vivo (active degradation + dilution); higher = more stable protein
[1] = E. coli NCM3722 delta-clpP delta-lon delta-hslV, growth: N-lim chemostat, doubling time 6 h
[2] = E. coli NCM3722 delta-clpP, growth: N-lim chemostat, doubling time 6 h
[3] = E. coli NCM3722 delta-hslV, growth: N-lim chemostat, doubling time 6 h
[4] = E. coli NCM3722 delta-lon, growth: N-lim chemostat, doubling time 6 h
[5] = E. coli NCM3722 delta-smpB, growth: N-lim chemostat, doubling time 6 h
[6] = wild type E. coli NCM3722, growth: C-lim chemostat, doubling time 3 h
[7] = wild type E. coli NCM3722, growth: C-lim chemostat, doubling time 6 h
[8] = wild type E. coli NCM3722, growth: C-lim chemostat, doubling time 12 h
[9] = wild type E. coli NCM3722, growth: N-lim chemostat, doubling time 6 h
[10] = wild type E. coli NCM3722, growth: N-lim chemostat, doubling time 12 h
[11] = wild type E. coli NCM3722, growth: P-lim chemostat, doubling time 6 h
[12] = wild type E. coli NCM3722, growth: P-lim chemostat, doubling time 12 h

| Sequence | total protein half-life in vivo [1] [h] | total protein half-life in vivo [2] [h] | total protein half-life in vivo [3] [h] | total protein half-life in vivo [4] [h] | total protein half-life in vivo [5] [h] | total protein half-life in vivo [6] [h] | total protein half-life in vivo [7] [h] | total protein half-life in vivo [8] [h] | total protein half-life in vivo [9] [h] | total protein half-life in vivo [10] [h] | total protein half-life in vivo [11] [h] | total protein half-life in vivo [12] [h] |
| --- | --- | --- | --- | --- | --- | --- | --- | --- | --- | --- | --- | --- |
| MIPDVSQALAWLEKHPQALKGIQRGLERETLRVNADGTLATTGHPEALGSALTHKWITTDFAEALLEFITPVDGDIEHMLTFMRDLHRYTARNMGDERMWPLSMPCYIAEGQDIELAQYGTSNTGRFKTLYREGLKNRYGALMQTISGVHYNFSLPMAFWQAKCGDISGADAKEKISAGYFRVIRNYYRFGWVIPYLFGASPAICSSFLQGKPTSLPFEKTECGMYYLPYATSLRLSDLGYTNKSQSNLGITFNDLYEYVAGLKQAIKTPSEEYAKIGIEKDGKRLQINSNVLQIENELYAPIRPKRVTRSGESPSDALLRGGIEYIEVRSLDINPFSPIGVDEQQVRFLDLFMVWCALADAPEMSSSELACTRVNWNRVILEGRKPGLTLGIGCETAQFPLPQVGKDLFRDLKRVAQTLDSINGGEAYQKVCDELVACFDNPDLTFSARILRSMIDTGIGGTGKAFAEAYRNLLREEPLEILREEDFVAEREASERRQQEMEAADTEPFAVWLEKHA [P0A6W9] | 4.67 ± 0.094 | 4.57 ± 0.48 | 4.96 ± 0.18 | 5.15 ± 0.6 | 4.55 ± 0.18 | 3.36 ± 0.2 | 6.04 ± 0.38 | 9.533 ± 0.031 | 4.35 ± 0.33 | 7.2 ± 0.27 | 6.1209 ± 0.0053 | 11.4 ± 0.35 |
| MIPEKRIIRRIQSGGCAIHCQDCSISQLCIPFTLNEHELDQLDNIIERKKPIQKGQTLFKAGDELKSLYAIRSGTIKSYTITEQGDEQITGFHLAGDLVGFDAIGSGHHPSFAQALETSMVCEIPFETLDDLSGKMPNLRQQMMRLMSGEIKGDQDMILLLSKKNAEERLAAFIYNLSRRFAQRGFSPREFRLTMTRGDIGNYLGLTVETISRLLGRFQKSGMLAVKGKYITIENNDALAQLAGHTRNVA [P0A9E5] | 4.34 ± 0.13 | 2.99 ± 0.00054 | 1.2 ± 0.057 | 1.4 ± 0.028 | 1.24 ± 0.03 | 1.23 ± 0.064 | 1.708 ± 0.0036 | 2.2 ± 0.069 | 1.35 ± 0.091 | 1.68 ± 0.09 | 1.65 ± 0.039 | 2.37 ± 0.86 |
| MIPFNAPPVVGTELDYMQSAMGSGKLCGDGGFTRRCQQWLEQRFGSAKVLLTPSCTASLEMAALLLDIQPGDEVIMPSYTFVSTANAFVLRGAKIVFVDVRPDTMNIDETLIEAAITDKTRVIVPVHYAGVACEMDTIMALAKKHNLFVVEDAAQGVMSTYKGRALGTIGHIGCFSFHETKNYTAGGEGGATLINDKALIERAEIIREKGTNRSQFFRGQVDKYTWRDIGSSYLMSDLQAAYLWAQLEAADRINQQRLALWQNYYDALAPLAKAGRIELPSIPDGCVQNAHMFYIKLRDIDDRSALINFLKEAEIMAVFHYIPLHGCPAGEHFGEFHGEDRYTTKESERLLRLPLFYNLSPVNQRTVIATLLNYFS | 4.72 ± 0.099 | 4.4 ± 0.0057 | 4.83 ± 0.25 | 4.45 | 4.25 ± 0.17 | 2.89 ± 0.68 | 6.6 ± 1 | 12.5 ± 1.2 | 5.2 | 8.13 ± 0.2 | 6.1125 ± 0.0047 | 12.33 ± 0.05 |

Source: the supplement of paper PMC11246515
